# Target: Sho1 SH3 (SHO1_YEAST), P40073
# Assay: SPOT array
# Sho1 SH3 (SHO1_YEAST), P40073, sequence (P40073 295-366): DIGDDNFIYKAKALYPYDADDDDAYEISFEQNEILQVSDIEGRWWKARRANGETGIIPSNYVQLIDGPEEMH
row,"normalised SPOT signal, Boehringer light units (BLU); mean over the file's lines of this peptide",Binder
1,115,STSPPRPKRIVVAI [48-61 Phenylacrylic acid decarboxylase]
2,150,VVSPSHPFKQLQKI [146-159 (putative) involved in cell wall biogenesis]
3,128,VQQPEDPLRVLGEY [143-156 Hypothetical ORF]
4,108,SNDPIPPPRKVSDV [457-470 transcriptional activator of the SKN7 mediated 'two-component' regulatory system]
5,8540,"VETPPKPIKKDVRF [535-548 "" cytoskeletal protein, similar to arrestins""]"
6,115,SNFPDFPLKKYLKN [333-346 Hypothetical ORF]
7,86.9,SNSPISPHKLIYKN [473-486 positive transcriptional regulator of ADH2 and peroxisomal protein genes]
8,102,VFSPTNPLRIKIAR [326-339 putative calcium channel]
9,120,VTLPISPSRASISF [70-83 Hypothetical ORF]
10,332,SNNPSKPRKYKTKS [110-123 Hypothetical ORF]
11,174,VDAPINPTKILTFI [375-388 Weak similarity to Pta1p (pre-tRNA processing protein)]
12,198,VHGPGIPMKSLEVA [381-394 MAL-activator protein]
13,40.1,TKTPTQPIRLQTVS [519-532 putative zinc finger protein]
14,235,VSTPPVPKKFQEIF [9-22 cox1 pre-mRNA splicing factor]
15,88,VHGPGVPVKTLEIA [386-399 MAL-activator protein]
16,29.3,TNYPVNPEKHEMDK [1667-1680 GTPase activating protein]
17,63.7,SSMPNSPKKPVDSL [117-130 Product of gene unknown]
18,60.9,TPAPNLPEKTRLAL [872-885 Urea amidolyase (contains urea carboxylase and allophanate hydrolase)]
19,74.8,TDYPFKPPKVNFTT
20,366,TSTPPLPRRRATTS [247-260 Glycine-threonine-serine repeat protein]

row,"normalised SPOT signal, Boehringer light units (BLU); mean over the file's lines of this peptide",Binder
1,177,TRRPHHPLKQQSTN [34-47 Hypothetical ORF]
2,128,VHDPNIPLRPKEII [643-656 Ubiquitin-protein ligase]
3,210,SSFPTIPLRASSGA [232-245 Hypothetical ORF]
4,60.5,THAPTTPNRTSPNR [507-520 serine/threonine protein kinase]
5,67.2,SNSPQIPKKKVKDQ [1825-1838 Hypothetical ORF]
6,452,TLRPGIPLKPMLAK [384-397 DNA ligase]
7,178,TDYPFKPPKISFTT
8,-0,VDPPFMPFRDAGYS [120-133 soluble tyrosine-specific protein phosphatase]
9,86.6,TLIPPIPEKQSIKN [210-223 Hypothetical ORF]
10,81.7,"TDSPQLPSKDKSQE [472-485 "" Anti-silencing protein, involved in transcription""]"
11,160,VKRPLSPTRINGKS
12,132,TEAPMNPLKNREQM [114-127 Centractin]
13,129,VTVPKLPFKLAVNK [181-194 integral membrane protein]
14,73.5,SSYPMNPPKISFMQ [86-99 Member of ubiquitin-conjugating protein family]
15,121,"SSIPPNPGKTAKPI [108-121 "" Probable transcription-associated factor protein, probable -transducin type""]"
16,513,VIRPGVPTKFTKKQ [1275-1288 Glutamate synthase (NADPH)]
17,3660,WKPPDLPIRLRKRP [502-515 Ubiquitin-specific protease]
18,83.4,SSQPRPPPRPQQNP [71-84 Hypothetical ORF]
19,342,VFLPTAPSKHMDFA [478-491 TATA binding protein-associated factor (TAF)]
20,121,VLEPSKPYKKNPFM [663-676 Hypothetical ORF]

row,"normalised SPOT signal, Boehringer light units (BLU); mean over the file's lines of this peptide",Binder
1,161,SSTPIVPNRLKTVL [158-171 DNA replication helicase]
2,691,VKHPMKPFRLMLTD [43-56 (putative) histone deacetylase]
3,102,SSRPTSPVRKARST [28-41 (putative) cell cycle exonuclease]
4,128,TPPPVEPLKTKDLA [102-115 Hypothetical ORF]
5,11300,VPPPNVPKKDKREV [659-672 Ubiquitin-specific protease]
6,45.2,TTAPRGPKKAQPAQ [176-189 transcriptional activator of the SKN7 mediated 'two-component' regulatory system]
7,107,TSAPDIPPRSPNRN [54-67 Hypothetical ORF]
8,58,VVIPPVPSRYSDER [95-108 Product of gene unknown]
9,0,TNPPIDPIREANVM [572-585 Glutamate synthase (NADPH)]
10,138,TEPPMNPLKNREKM [109-122 actin-related protein]
11,1010,SRKPPIPAKQHVKK [547-560 Ubiquitin-specific protease]
12,94.6,VSIPFDPSKDTFDH [741-754 P-type ATPase]
13,392,VSDPYVPTRNTFNY [142-155 ubiquitin-mediated 26S proteasome subunit]
14,136,VTLPTGPAKIIWEK [510-523 cytochrome P450 lanosterol 14a-demethylase]
15,214,SSTPTTPERPKRKS [758-771 Hypothetical ORF]
16,763,TTRPAPPSKAKDVA [347-360 Hypothetical ORF]
17,79.6,TEVPSKPKKPSKTE [568-581 negative regulator of prp genes]
18,157,VENPFLPAKEERTG [910-923 159-kDa nucleoporin with coiled-coil domain and repeated motifs typical of nucleoporins]
19,132,TKVPSKPDRNSKIL [463-476 global regulator of transcription]
